The record followed here is patent US20250270289A1, “SEQUENCE-DEFINED POLYMERS WITH ONE OR MORE AZIDES, METHODS OF MAKING, AND METHODS OF USE THEREOF” (Yale University, priority 2021, published 2025).

Data set [1] concerns the target mouse serum albumin (MSA) (Mus musculus, UniProt P07724). Nature of the data set: Surface plasmon resonance, steady-state affinity. As to conditions: not ISAz treated; mean (s.d.) of 4-8 experiments; n.d. = no binding detected. A general note: In SPR one partner is held on a chip, and binding of the other changes the refractive index at the surface.
A short description of data set [2]: Half-life from blood samples by GFP ELISA after injection. As to conditions: intravenous, 50 μg, no ISAz treatment. In kind it is in vivo, C57BL/6 mice. The protocol:
The half-lives of ELP-GFP constructs were calculated from concentrations measured from blood samples collected over the course of a week. The experiments were initiated by injecting 120 μL of 10 μM ELP-GFP intravenously or subcutaneously. At indicated times, 2 μL blood was collected from a tail puncture, and diluted 1:25 in heparin tubes. The blood sample was vortexed briefly and cells were pelleted by centrifugation (2 min at 14,000 g). The soluble fraction was collected and frozen at −20° C. until analysis. ELP-GFP concentrations of the samples were determined using a GFP ELISA Kit (Abcam, cat. #ab171581). The samples were diluted in PBS as needed, to ensure that the concentration fell within the quantifiable range of the standard curve.
Next, experiments were designed to determine if the tighter binding affinity translates into prolonged half-life in C57BL/6J mice. A total of 50 μg of each protein variant (10 μM in PBS) was injected intravenously, and blood was collected after 1, 4, 8, 16 and 24 hours, followed by daily collections through seven days. The blood levels of ELP(nFA)-GFP constructs were measured using a GFP-specific ELISA, and their pharmacokinetic profiles were calculated (see FIGS. 7F and 7G).
(In general: ELISA stands for enzyme-linked immunosorbent assay.)

Sequence of mouse serum albumin (MSA) (P07724 25-608): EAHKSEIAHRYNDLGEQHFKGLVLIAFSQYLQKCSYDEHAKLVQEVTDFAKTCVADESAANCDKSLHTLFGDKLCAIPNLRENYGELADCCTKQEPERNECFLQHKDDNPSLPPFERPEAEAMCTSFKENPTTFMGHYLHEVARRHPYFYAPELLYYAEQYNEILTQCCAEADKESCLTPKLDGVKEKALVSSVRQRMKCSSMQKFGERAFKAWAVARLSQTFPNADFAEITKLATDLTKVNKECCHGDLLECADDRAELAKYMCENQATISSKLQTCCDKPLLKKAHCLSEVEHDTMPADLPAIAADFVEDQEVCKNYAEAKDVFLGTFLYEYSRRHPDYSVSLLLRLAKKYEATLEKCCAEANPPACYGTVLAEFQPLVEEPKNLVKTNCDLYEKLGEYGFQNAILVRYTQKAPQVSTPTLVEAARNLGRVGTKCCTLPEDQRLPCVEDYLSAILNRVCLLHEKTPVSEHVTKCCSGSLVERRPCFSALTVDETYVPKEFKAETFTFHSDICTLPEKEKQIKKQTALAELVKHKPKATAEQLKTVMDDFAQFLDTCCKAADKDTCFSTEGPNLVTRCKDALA

B1: ELP(0FA)GFP: ELP-GFP fusion, 10 pentadecapeptide repeats with tyrosine at the guest residue, no conjugated fatty acids (SEQ ID NO:33) (protein)
chain: MSKGPGVPGGGVPGAGVPGYGVPGGGVPGAGVPGYGVPGGGVPGAGVPGYGVPGGGVPGAGVPGYGVPGGGVPGAGVPGYGVPGGGVPGAGVPGYGVPGGGVPGAGVPGYGVPGGGVPGAGVPGYGVPGGGVPGAGVPGYGVPGGGVPGAGVPGYGPGGGG
Consider B1, for which, in data set [1], the “KD MSA” value was “no detectable binding”. The same molecule displayed a half-life in data set [2] of 1.7 h.

Broadly, the half-life is how long it takes for the measured level to halve. The low end stands for fast loss, the high end for slow loss.
